Biological target: nucleolin on surface of HCT116 p53-/- cells (Homo sapiens) (UniProt P19338)
Assay: flow
Conditions: 2'-F pyrimidines, unit inferred

Sequence of nucleolin on surface of HCT116 p53-/- cells (Homo sapiens) (P19338 2-710): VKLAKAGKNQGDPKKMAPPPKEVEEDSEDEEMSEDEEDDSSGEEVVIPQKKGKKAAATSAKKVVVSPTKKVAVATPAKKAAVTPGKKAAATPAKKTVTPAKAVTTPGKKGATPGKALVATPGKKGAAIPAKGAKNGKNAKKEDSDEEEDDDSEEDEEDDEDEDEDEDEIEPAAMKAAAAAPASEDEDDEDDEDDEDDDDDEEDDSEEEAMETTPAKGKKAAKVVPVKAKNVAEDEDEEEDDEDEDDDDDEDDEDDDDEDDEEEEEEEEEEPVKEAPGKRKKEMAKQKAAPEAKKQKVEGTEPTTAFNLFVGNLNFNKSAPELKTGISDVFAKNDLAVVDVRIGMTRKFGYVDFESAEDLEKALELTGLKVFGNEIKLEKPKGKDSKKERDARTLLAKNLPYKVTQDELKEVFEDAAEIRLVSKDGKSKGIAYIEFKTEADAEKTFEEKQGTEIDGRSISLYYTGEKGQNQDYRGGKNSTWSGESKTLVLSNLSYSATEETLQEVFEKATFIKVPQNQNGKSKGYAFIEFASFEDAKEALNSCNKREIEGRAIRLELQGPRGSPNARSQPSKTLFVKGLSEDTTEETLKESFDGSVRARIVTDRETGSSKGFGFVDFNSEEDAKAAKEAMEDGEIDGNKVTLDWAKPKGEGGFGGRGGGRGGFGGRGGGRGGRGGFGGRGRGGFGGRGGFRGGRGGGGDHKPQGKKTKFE

| Sequence | Kd (DL650-labeled Ev5, HCT116 p53-/- cells, Bmax 2.064) [nM] | Kd (DL650-labeled Ev3, HCT116 p53-/- cells, Bmax 3.214) [nM] |
| --- | --- | --- |
| GGAAGAGGGAUGGGCACGGUCCAGCGCUAACUGUACCUGCUGUGCCACCCACC [Ev5] | 50.7 | – |
| GGGAGAGAGGAAGAGGGAUGGGCACGGUCCAGCGCUAACUGUACCUGCUGUGCCACCCACCG [Ev3] | – | 119 |

Reference: patent publication US20200283773
